The values below come from patent US20080293632.

The data set addresses SHOX full length (Homo sapiens) (UniProt O15266). Nature of the data set: cell_activity. The conditions noted are these: luciferase.

SHOX full length (Homo sapiens), sequence (O15266 whole entry): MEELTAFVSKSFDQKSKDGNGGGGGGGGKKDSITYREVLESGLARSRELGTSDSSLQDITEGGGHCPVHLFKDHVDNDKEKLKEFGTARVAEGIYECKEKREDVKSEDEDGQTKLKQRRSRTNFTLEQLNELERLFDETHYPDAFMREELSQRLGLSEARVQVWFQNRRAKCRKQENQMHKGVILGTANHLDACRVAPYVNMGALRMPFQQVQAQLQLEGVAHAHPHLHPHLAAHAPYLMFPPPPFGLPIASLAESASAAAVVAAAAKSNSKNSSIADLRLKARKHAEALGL

As to “p3XG reporter (SHOX binding site before SV40 core promoter)”, the activity (fold induction) was determined as 2.
The substance “BNP 5' flanking region reporter (BNP for / BNP rev)” displayed an activity (fold induction) (forward orientation, reverse 8-fold) of 10.
